Laboratory results: article PMC5600342 (Biochemistry and Biophysics Reports, 2016)
Ends that are not written are not given here.

T1: Mouse nucleoplasmin M.NPM2 (full murine NPM2) (mouse, UniProt Q80W85 1-207)
T1 sequence: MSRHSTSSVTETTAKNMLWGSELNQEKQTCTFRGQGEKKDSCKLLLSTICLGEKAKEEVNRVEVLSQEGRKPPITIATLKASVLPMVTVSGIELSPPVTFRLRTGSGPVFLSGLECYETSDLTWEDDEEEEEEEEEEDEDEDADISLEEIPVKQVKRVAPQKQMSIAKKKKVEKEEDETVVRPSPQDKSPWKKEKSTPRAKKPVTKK

B1: Mouse protamine P1 (natural protein)
chain: MARYRC(pyridylethyl)C(pyridylethyl)RSKSRSRC(pyridylethyl)RRRRRRC(pyridylethyl)RRRRRRC(pyridylethyl)C(pyridylethyl)RRRRRRC(pyridylethyl)C(pyridylethyl)RRRRSYTIRC(pyridylethyl)KKY
B2: Mouse nucleoplasmin M.NPM2 (full murine NPM2) (natural protein)
chain: T1 sequence

Assays:
[1] = target: T1, Mouse nucleoplasmin M.NPM2 (full murine …); test: cross-linking
[2] = target: mouse P1+P2 (stoichiometric mixture containing equal amounts of protamines P1 and P2) (mouse); test: native gel or EMSA

Row | Binder | binding result [1] | stoichiometry N [2]
1 | B1 | binds | 
2 | B2 |  | 3 P1+P2:M.NPM2
